Biological target: T1, Cpn0803 (Chlamydia pneumoniae, UniProt Q9Z7A3 1-184)
T1 construct: Prey in an E. coli lysate
T1 sequence: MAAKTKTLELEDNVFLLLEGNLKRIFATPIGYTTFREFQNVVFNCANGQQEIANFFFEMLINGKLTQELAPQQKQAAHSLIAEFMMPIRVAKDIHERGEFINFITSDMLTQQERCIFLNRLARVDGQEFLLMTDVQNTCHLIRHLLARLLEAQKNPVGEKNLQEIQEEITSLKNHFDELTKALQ
Assay: GST pull-down from E. coli lysate, high salt wash

B1: GST-CopB1-255 (other)
chain: MSISSSSGPDNQKNIMSQVLTSTPQGVPQQDKLSGNETKQIQQTRQGKNTEMESDATIAGASGKDKTSSTTKTETAPQQGVAAGKESSESQKAGADTGVSGAAATTASNTATKIAMQTSIEEASKSMESTLESLQSLSAAQMKEVEAVVVAALSGKSSGSAKLETPELPKPGVTPRSEVIEIGLALAKAIQTLGEATKSALSNYASTQAQADQTNKLGLEKQAIKIDKEREEYQEMKAAEQKSKDLEGTMDTVNT
notes: Bait on glutathione-agarose beads; also called recombinant GST-CopB1-255; GST-CopB fragment; not shown: glutathione-S-transferase (GST) fusion tag
Does B1 bind?
Result: no binding

Source: patent US20160346375A1 (MCMASTER UNIVERSITY, published 2016)
